Experimental data from patent US20200339702A1 (ULTRAHUMAN THIRTEEN, published 2020).
Where a chain is given by its changes, count along the chain named.

Key:
human insulin = target: T1, human insulin (human, UniProt P01308 25-54; P01308 90-110, limits assumed); assay: development risk ELISA on insulin
T1 construct: Off-target protein in the development risk (polyreactivity) ELISA

[1] = target: T2, human ERBB3 human Fc tagged recombinant protein (human, UniProt P21860 20-643); assay: direct binding ELISA on coated human ERBB3-Fc, IgG1 titrated
T2 construct: also called human ERBB3-Fc; huERBB3
Method: (§1) Binding and cross-reactivity of the lead panel to the recombinant proteins was initially assessed by binding ELISA. The human ERBB3 human Fc tagged recombinant protein and the rhesus monkey ERBB3 human Fc tagged recombinant protein were coated to the surface of MaxiSorp™ flat-bottom 96 well plate at 1 μg/ml. The purified IgG samples were titrated in two fold serial dilutions starting from 500 nM to 0.008 nM and allowed to bind to the coated antigens. The Fabs were detected using mouse anti-c-myc antibody followed by donkey anti-mouse IgG conjugated to horseradish peroxidase. The IgGs were detected using the mouse anti-human IgG conjugated to horseradish peroxidase. Binding signals were visualized with 3,3′,5,5′-Tetramethylbenzidine Substrate Solution (TMB) and the absorbance measured at 450 nm.

[2] = target: T3, rhesus monkey ERBB3 human Fc tagged recombinant protein (rhesus monkey (Macaca mulatta), UniProt P21860 20-643 (human entry), limits assumed); assay: direct binding ELISA on coated rhesus ERBB3-Fc, IgG1 titrated
T3 construct: also called rhesus ERBB3-Fc; rhERBB3
T3 chain: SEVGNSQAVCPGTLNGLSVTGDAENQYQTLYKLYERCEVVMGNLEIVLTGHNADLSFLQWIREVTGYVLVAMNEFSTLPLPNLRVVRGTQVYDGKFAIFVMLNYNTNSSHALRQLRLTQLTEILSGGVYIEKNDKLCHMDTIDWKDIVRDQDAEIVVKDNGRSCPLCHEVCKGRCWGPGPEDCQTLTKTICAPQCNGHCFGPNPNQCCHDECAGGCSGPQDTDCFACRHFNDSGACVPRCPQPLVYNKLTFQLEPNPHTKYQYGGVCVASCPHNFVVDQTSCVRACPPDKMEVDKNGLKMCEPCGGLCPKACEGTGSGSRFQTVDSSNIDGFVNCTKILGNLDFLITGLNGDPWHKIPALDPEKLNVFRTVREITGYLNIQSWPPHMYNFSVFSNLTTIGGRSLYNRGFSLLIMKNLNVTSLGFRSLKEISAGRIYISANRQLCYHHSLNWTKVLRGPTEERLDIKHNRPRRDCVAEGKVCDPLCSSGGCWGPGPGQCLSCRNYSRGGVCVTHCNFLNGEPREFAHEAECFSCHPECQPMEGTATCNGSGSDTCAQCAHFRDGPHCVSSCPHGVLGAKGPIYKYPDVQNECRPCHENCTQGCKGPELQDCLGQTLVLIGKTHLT
Method: as §1

[3] = target: T4, human ERBB3 on transiently transfected HEK-293 cells (human, UniProt P21860 20-1342); assay: flow cytometry, human ERBB3-transfected HEK-293 cells, IgG1 titrated
T4 construct: also called human ERBB3+ HEK-293 cells
Method: (§2) Purified IgGs were tested in FACs for binding to human and rhesus monkey ERBB3 expressed on transiently transfected HEK-293 cells and HEK-293 wild-type cells. The IgG samples were titrated in three-fold serial dilutions starting at 500 nM to 0.008 nM. Binding of IgGs was detected with a mouse anti-human IgG conjugated to FITC. Results were analyzed by examining the Mean Fluorescence Intensity (MFI) of 10000 cells per sample in the BL-1 channel detector of a flow cytometer (Attune™ NxT Acoustic Focusing Cytometer, Invitrogen/ThermoFisher Scientific).

[4] = target: T5, rhesus ERBB3 on transiently transfected HEK-293 cells (rhesus monkey (Macaca mulatta), UniProt P21860 20-1342 (human entry)); assay: flow cytometry, rhesus ERBB3-transfected HEK-293 cells, IgG1 titrated
T5 construct: also called rhesus ERBB3+ HEK-293 cells
T5 chain: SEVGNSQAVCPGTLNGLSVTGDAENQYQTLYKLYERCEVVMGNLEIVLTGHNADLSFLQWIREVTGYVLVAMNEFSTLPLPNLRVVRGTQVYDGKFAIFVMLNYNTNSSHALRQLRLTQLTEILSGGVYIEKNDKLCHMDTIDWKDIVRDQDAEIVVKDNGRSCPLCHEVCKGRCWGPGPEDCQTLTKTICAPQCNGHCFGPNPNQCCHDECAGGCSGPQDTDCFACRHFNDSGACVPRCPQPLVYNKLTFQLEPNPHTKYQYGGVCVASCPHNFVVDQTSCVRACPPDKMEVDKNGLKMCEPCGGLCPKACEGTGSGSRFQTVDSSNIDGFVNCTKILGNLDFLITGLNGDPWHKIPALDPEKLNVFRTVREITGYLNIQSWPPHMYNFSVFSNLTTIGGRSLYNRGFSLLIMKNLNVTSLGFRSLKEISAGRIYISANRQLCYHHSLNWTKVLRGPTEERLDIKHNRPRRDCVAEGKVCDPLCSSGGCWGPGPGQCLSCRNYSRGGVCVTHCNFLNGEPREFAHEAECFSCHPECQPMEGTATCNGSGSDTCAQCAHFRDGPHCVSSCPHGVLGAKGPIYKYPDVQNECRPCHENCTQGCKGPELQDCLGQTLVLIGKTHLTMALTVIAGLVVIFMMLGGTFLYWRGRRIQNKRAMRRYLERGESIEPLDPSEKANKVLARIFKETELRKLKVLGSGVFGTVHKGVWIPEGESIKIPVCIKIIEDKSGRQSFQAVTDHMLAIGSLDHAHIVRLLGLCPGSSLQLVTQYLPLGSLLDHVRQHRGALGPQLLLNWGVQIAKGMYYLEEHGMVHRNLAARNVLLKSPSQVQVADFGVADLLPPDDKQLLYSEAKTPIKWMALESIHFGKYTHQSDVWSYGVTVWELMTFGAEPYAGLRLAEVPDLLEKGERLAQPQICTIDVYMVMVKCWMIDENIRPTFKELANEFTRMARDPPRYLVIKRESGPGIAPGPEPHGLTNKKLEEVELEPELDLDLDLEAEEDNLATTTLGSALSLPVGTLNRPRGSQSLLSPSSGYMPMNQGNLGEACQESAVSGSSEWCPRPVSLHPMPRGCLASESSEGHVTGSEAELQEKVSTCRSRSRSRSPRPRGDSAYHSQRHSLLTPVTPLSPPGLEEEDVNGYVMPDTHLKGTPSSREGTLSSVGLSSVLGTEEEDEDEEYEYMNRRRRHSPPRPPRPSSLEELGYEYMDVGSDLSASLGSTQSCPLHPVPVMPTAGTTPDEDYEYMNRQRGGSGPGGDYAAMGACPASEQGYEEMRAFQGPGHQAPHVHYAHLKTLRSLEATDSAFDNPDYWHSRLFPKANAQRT
Method: as §2

[5] = target: T6, human ERBB3 His tagged, monomeric (human, UniProt P21860 20-643, biotinylated in the Alphascreen assays (sites not given)); assay: Alphascreen competition in solution, competitor h24C05 IgG1, biotinylated human ERBB3-His
T6 construct: Used unbiotinylated as Biacore analyte and biotinylated in Alphascreen; treated as one molecule; also called human ERBB3-His (Acrobiosystems); biotinylated monomeric human ERBB3

T1 sequence (P01308 25-54 limits assumed, chain 1 of 2): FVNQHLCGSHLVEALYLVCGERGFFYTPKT
T1 sequence (P01308 90-110 limits assumed, chain 2 of 2): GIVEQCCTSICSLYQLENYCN

B1: 15G11-DI2 IgG1 (antibody, V domains shown)
VH: QVQLVESGGGLVKPGGSLRLSCAASGFTFSDYGMSWVRQAPGKGLEWVSTISDSGSYTYYPDSVKGRFTISRDNAKNSLYLQMNSLRAEDTAVYYCARELGDYDGFDYWGQGTLVTVSS
VL: DIQMTQSPSSLSASVGDRVTITCRASQEISTYLSWYQQKPGKAPKLLIYAASSLDTGVPSRFSGSGSGTDFTLTISSLQPEDFATYYCLQYDSTPYTFGGGTKVEIK
notes: Human IgG1 format, human Ckappa
Human insulin
  binding score: < 10
[1]
  binding result: binds
[2]
  binding result: binds
[3]
  binding result: binds
[4]
  binding result: binds
[5]
  binding result: binds

B2: 15G11-DI7 IgG1 (antibody, V domains shown)
VH: B1 VH with G33S, V37I, S56T, L100W, Y108F
VL: B1 VL with T31S, T94S
notes: Human IgG1 format, human Ckappa; also called 15G11-D17
Human insulin
  binding score: < 10
[1]
  binding result: binds
[2]
  binding result: binds
[3]
  binding result: binds
[4]
  binding result: binds
[5]
  binding result: binds

B3: 15G11-DI3 IgG1 (antibody, V domains shown)
VH: B1 VH
VL: B1 VL with T31S, T94S
notes: as for B1
Human insulin
  binding score: < 10
[1]
  binding result: binds
[2]
  binding result: binds
[3]
  binding result: binds
[4]
  binding result: binds
[5]
  binding result: binds

B4: 15G11-DI8 IgG1 (antibody, V domains shown)
VH: B1 VH with G33S, V37I, S56T, L100W, Y108F
VL: B1 VL with T94S
notes: as for B1
Human insulin
  binding score: < 10
[1]
  binding result: binds
[2]
  binding result: binds
[3]
  binding result: binds
[4]
  binding result: binds
[5]
  binding result: binds

B5: 15G11-DI10 IgG1 (antibody, V domains shown)
VH: B1 VH
VL: B1 VL with T31S, I48A, T56S
notes: as for B1
[1]
  binding result: binds
[2]
  binding result: binds
[3]
  binding result: binds
[4]
  binding result: binds
[5]
  binding result: binds

B6: 15G11-DI4 IgG1 (antibody, V domains shown)
VH: B1 VH
VL: B1 VL with T94S
notes: as for B1
Human insulin
  binding score: < 10
[1]
  binding result: binds
[2]
  binding result: binds
[3]
  binding result: binds
[4]
  binding result: binds
[5]
  binding result: binds

B7: 15G11-DI9 IgG1 (antibody, V domains shown)
VH: B1 VH with G33S, V37I, S56T, L100W, Y108F
VL: B1 VL with S53T, D55Q, T56S, T94S, Y96L
notes: as for B1
Human insulin
  binding score: < 10
[1]
  binding result: binds
[2]
  binding result: binds
[3]
  binding result: binds
[4]
  binding result: binds
[5]
  binding result: binds
